The values that follow are results of earlier work, collected in publication PMC11924945.

The target in this data set is CD47 (Homo sapiens) (UniProt Q08722).

pKd: −log10 of the molar value.

SIRPα allele 2, sequence (P78324 31-373): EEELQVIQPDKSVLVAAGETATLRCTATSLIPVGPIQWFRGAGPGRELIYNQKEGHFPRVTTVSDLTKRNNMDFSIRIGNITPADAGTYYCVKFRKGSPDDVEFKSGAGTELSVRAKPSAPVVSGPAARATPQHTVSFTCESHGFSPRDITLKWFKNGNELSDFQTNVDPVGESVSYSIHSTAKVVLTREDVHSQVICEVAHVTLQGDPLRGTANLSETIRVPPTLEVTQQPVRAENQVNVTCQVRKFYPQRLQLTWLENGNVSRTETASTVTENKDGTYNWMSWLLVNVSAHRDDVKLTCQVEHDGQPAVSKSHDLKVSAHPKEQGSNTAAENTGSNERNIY
CD47 (Homo sapiens), sequence (Q08722 19-323): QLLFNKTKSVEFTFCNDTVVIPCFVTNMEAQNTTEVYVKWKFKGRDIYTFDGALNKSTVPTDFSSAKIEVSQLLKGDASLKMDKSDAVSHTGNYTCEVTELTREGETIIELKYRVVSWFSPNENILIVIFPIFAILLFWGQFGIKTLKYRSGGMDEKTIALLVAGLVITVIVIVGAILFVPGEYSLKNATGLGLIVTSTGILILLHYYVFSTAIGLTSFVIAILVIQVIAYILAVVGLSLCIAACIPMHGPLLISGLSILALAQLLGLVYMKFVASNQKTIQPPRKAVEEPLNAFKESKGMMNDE

Regarding SIRPα allele 2 (from UniProt P78324), the pKd was 6.00.

What is called pKd is the negative decadic logarithm of the Kd, by convention in mol/L.
